In patent US20190040368:

System: recombinant human iduronate-2 sulfatase (rhIDS)
Sequence (chain, as listed by the source): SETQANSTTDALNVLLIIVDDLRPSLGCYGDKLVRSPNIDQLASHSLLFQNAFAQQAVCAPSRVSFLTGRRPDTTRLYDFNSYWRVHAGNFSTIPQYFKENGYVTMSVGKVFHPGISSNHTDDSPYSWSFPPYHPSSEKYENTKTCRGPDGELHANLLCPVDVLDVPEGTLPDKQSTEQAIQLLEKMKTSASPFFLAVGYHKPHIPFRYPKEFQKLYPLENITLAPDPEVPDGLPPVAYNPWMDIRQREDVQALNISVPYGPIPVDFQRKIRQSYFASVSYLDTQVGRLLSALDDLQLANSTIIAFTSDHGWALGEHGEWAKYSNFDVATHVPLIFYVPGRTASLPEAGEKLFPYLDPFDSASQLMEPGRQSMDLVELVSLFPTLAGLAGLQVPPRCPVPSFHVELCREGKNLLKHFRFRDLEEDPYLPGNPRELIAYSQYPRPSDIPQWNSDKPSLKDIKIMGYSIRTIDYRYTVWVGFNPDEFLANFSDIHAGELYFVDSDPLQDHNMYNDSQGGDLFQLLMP

Sequence of Dendroctonus ponderosa Lip2-DpFGE-His6-HDEL fusion construct (chain, as listed by the source): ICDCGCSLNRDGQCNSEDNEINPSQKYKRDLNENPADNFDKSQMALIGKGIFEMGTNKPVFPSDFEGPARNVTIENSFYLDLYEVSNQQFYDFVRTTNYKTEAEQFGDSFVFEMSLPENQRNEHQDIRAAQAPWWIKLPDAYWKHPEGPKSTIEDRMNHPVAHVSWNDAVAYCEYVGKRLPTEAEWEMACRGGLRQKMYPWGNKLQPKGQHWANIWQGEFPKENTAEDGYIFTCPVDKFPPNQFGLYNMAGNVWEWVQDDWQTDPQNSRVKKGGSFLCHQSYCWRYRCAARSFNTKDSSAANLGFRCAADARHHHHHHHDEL

Dendroctonus ponderosa Lip2-DpFGE-His6-HDEL fusion construct
% activity of rhIDS; co-expression with DpFGE: 5%
